The results in this text go back to US20110263459, “DIRECT SELECTION OF STRUCTURALLY DEFINED APTAMERS” (published 2011).

Series [1] deals with HIV-1 nucleocapsid protein NCp7 (HIV-1) (UniProt P03349). To be noted: Cy3-NCp7 microarray; 3.5x background (AUA).
In series [2] the target is T1, HIV-1 nucleocapsid protein NCp7 (HIV-1, UniProt P03349 P03349:380-434). Description: Trp37 fluorescence quenching, PBS pH 7.4, 0.1% Tween-20, 5 mM MgCl2, 25 C; 1:1. The settings on record: tags: unlabelled for Trp titration; Cy3/Dylight-labelled for chips; made in house, >95% pure; hairpin.
Series [3] concerns the target T1, HIV-1 nucleocapsid protein NCp7. Put plainly: Trp37 fluorescence quenching, PBS, 5 mM MgCl2, 25 C; negative on chip. The settings on record: tags: unlabelled for Trp titration; Cy3/Dylight-labelled for chips; made in house, >95% pure; hairpin.
Series [4] shares this target. Put plainly: multiple NCp7 bound per TBA in Trp37 titration; positive on chip. To be noted: tags: unlabelled for Trp titration; Cy3/Dylight-labelled for chips; made in house, >95% pure; G4.

In turn, TGTNNN [N6-56(64) pool] came in with a binding signal (fold of GUG control) in series [1] of 1.5.

The molecule GGACUAGCGGUGGCUAGUCC (ssRNA) [G control (SL3-GUG)] registered a Kd in series [2] of 10 nM.

GGACUAGCGAUAGCUAGUCC (ssRNA) [A control (SL3-AUA)] registered a dissociation constant Kd in series [3] of 200 nM.

For GGTTGGTGTGGTTGG (structured_DNA) [control 33 (TBA)], the binding result in series [4] is reported as “binds”.

By Kd is commonly meant the constant that tells how readily two partners part at equilibrium. Read a high Kd as weaker binding.
